According to PMC7954794, “Protein context shapes the specificity of SH3 domain-mediated interactions in vivo” (Nature Communications, 2021):

Tested on: Abp1 PPIs
Experiment: DHFR-PCA of Abp1 SH3-swapped baits (Fig. 2B-D, S2C, S2F);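 as to Protein-protein interaction distance between Abp1 SH3-swapped baits, to ABP1: Euclidean distance between DHFR-PCA score profiles of the baits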;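 as to Protein-protein interaction distance between Abp1 SH3-swapped baits, to BEM1-2: Euclidean distance between DHFR-PCA score profiles of the baits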;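 as to Protein-protein interaction distance between Abp1 SH3-swapped baits, to BOI1: Euclidean distance between DHFR-PCA score profiles of the baits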;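 as to Protein-protein interaction distance between Abp1 SH3-swapped baits, to BZZ1-1: Euclidean distance between DHFR-PCA score profiles of the baits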
Type: cell-based, Saccharomyces cerevisiae
Conditions: sheet Fig2C
How it was run: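 Yeast DHFR-PCA in which Abp1 baits, carrying their SH3 replaced by CRISPR–Cas9 with one of 27 yeast SH3s or human CTTN, HCLS1 or DBNL SH3s, were mated against 575 SH3-associated DHFR F[3] preys plus 40 negative controls. Four tests were run per PPI. Diploids were selected twice (48 h, 30 °C), then grown 4 days on PCA selection media.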

B1: CYK3 (protein, UniProt Q07533 1-885, looked up)
Cytokinesis protein 3: MATNLTSLKPPFKVKARYGWSGQTKGDLGFLEGDIMEVTRIAGSWFYGKLLRNKKCSGYFPHNFVILLEERLNSSTENGRQPSKIVESFEKSNKVVIPPVPSRYSDERPRPKKKLSSSMPNSPKKPVDSLTKARKAKSKEMVNEKNIYNTQSSRHHNNSAPNLPLASHSKPQVRNFEESMNNPLPPLPPLPDLDNMRKTDKRAPKKSYSANDLHMARSSREYNYYKDNQKFYDGFIPEKRYSLEEDSISSGLFSNSQYLNDSACSSENSFALMSDFSATSAGSFARHKYAQSFSDSLQRSQNANGCSTKINDSQEFGDSNASSRNGKMGDILRKIIIPKRNTNIYSSSVSSPKSPKAYPKLPDIQNLNLSATPDEARDWIAVKCHLNRARTLTKYDKHPRYMRALEENRDLILHPQDSIYNGLNTNEVKGNTKPGLVDVELAELNIEYIDKMTWKRCIRDGTMTLDSWAQTTFSARYSTVLEKLRGIYIFCTEMFALTDDNGTSDFSAEPQNLEKILYRKHCTPYELTWLFKKLANSLGITCEIVIGFLKTPSAINWEFKYNHCWLRILVNKEWRFIDVILGNVTNPIHEFVNNRKIKKAENSYFLMAPLEMIYTHIPPREFEQHIVPSIDQLSALYLPLVFPSFFKNELKLYKFSTALSFLEDSEIYECSLEIPNDVEVFASVVIPTDNEEASSAYRNMELALTQIKKQKAESGRRIALIKAVLPPNVNKGSLYIHSGVRGTQTSIANIHPLSMMVPLTHKGSNMKYEFVIKIPSESIQKIELYIVEPQSRYLFVGNEYSFEVIQSPSDGIVYSSDEGPNQNRKQPMAIKSPSGRVHELVKSDPHFPYGTWKGSIKIKEPGVWSALVIADSGIGWSVFAEWLCV
Q: B1 was tested. Which “Protein-protein interaction distance between Abp1 SH3-swapped baits, to ABP1” value (Abp1 bait with swapped SH3, distance to bait with ABP1 SH3) did it give?
A: The value was 26.78.

Q: And the “Protein-protein interaction distance between Abp1 SH3-swapped baits, to BBC1” value (distance to Abp1 bait with BBC1 SH3)?
A: The value was 25.11.

Q: And the “Protein-protein interaction distance between Abp1 SH3-swapped baits, to BEM1-1” value (distance to Abp1 bait with BEM1-1 SH3)?
A: The value was 17.6.

Q: What about the “Protein-protein interaction distance between Abp1 SH3-swapped baits, to BEM1-2” value (distance to Abp1 bait with BEM1-2 SH3) of the same molecule?
A: Its value is 11.87.

Q: What about the “Protein-protein interaction distance between Abp1 SH3-swapped baits, to BOI1” value (distance to Abp1 bait with BOI1 SH3) of the same molecule?
A: The value was 21.68.

Q: And the “Protein-protein interaction distance between Abp1 SH3-swapped baits, to BOI2” value (distance to Abp1 bait with BOI2 SH3)?
A: Its value is 20.06.

Q: What about the “Protein-protein interaction distance between Abp1 SH3-swapped baits, to BUD14” value (distance to Abp1 bait with BUD14 SH3) of the same molecule?
A: Its value is 16.1.

Q: What about the “Protein-protein interaction distance between Abp1 SH3-swapped baits, to BZZ1-1” value (distance to Abp1 bait with BZZ1-1 SH3) of the same molecule?
A: Its value is 26.08.

Q: And the “Protein-protein interaction distance between Abp1 SH3-swapped baits, to BZZ1-2” value (distance to Abp1 bait with BZZ1-2 SH3)?
A: Its value is 22.45.

Q: What about the “Protein-protein interaction distance between Abp1 SH3-swapped baits, to CDC25” value (distance to Abp1 bait with CDC25 SH3) of the same molecule?
A: Its value is 5.497.

Q: What about the “Protein-protein interaction distance between Abp1 SH3-swapped baits, to CTTN” value (distance to Abp1 bait with CTTN SH3) of the same molecule?
A: Its value is 21.37.

Q: What about the “Protein-protein interaction distance between Abp1 SH3-swapped baits, to CYK3” value (distance to Abp1 bait with CYK3 SH3) of the same molecule?
A: Its value is 0.00.

Q: And the “Protein-protein interaction distance between Abp1 SH3-swapped baits, to DBNL” value (distance to Abp1 bait with DBNL SH3)?
A: The value was 25.11.

Q: What about the “Protein-protein interaction distance between Abp1 SH3-swapped baits, to FUS1” value (distance to Abp1 bait with FUS1 SH3) of the same molecule?
A: Its value is 14.91.

Q: And the “Protein-protein interaction distance between Abp1 SH3-swapped baits, to HCLS1” value (distance to Abp1 bait with HCLS1 SH3)?
A: The value was 28.59.

Q: And the “Protein-protein interaction distance between Abp1 SH3-swapped baits, to HOF1” value (distance to Abp1 bait with HOF1 SH3)?
A: Its value is 10.8.

Q: And the “Protein-protein interaction distance between Abp1 SH3-swapped baits, to HSE1” value (distance to Abp1 bait with HSE1 SH3)?
A: The value was 25.16.

Q: What about the “Protein-protein interaction distance between Abp1 SH3-swapped baits, to LSB1” value (distance to Abp1 bait with LSB1 SH3) of the same molecule?
A: Its value is 31.53.

Q: What about the “Protein-protein interaction distance between Abp1 SH3-swapped baits, to LSB3” value (distance to Abp1 bait with LSB3 SH3) of the same molecule?
A: The value was 31.13.

Q: And the “Protein-protein interaction distance between Abp1 SH3-swapped baits, to MYO3” value (distance to Abp1 bait with MYO3 SH3)?
A: The value was 30.11.

Q: And the “Protein-protein interaction distance between Abp1 SH3-swapped baits, to MYO5” value (distance to Abp1 bait with MYO5 SH3)?
A: The value was 29.49.

Q: And the “Protein-protein interaction distance between Abp1 SH3-swapped baits, to NBP2” value (distance to Abp1 bait with NBP2 SH3)?
A: Its value is 15.74.

Q: And the “Protein-protein interaction distance between Abp1 SH3-swapped baits, to PEX13” value (distance to Abp1 bait with PEX13 SH3)?
A: Its value is 29.86.

Q: And the “Protein-protein interaction distance between Abp1 SH3-swapped baits, to PIN3” value (distance to Abp1 bait with PIN3 SH3)?
A: Its value is 28.76.

Q: What about the “Protein-protein interaction distance between Abp1 SH3-swapped baits, to RVS167” value (distance to Abp1 bait with RVS167 SH3) of the same molecule?
A: Its value is 28.09.

Q: And the “Protein-protein interaction distance between Abp1 SH3-swapped baits, to SDC25” value (distance to Abp1 bait with SDC25 SH3)?
A: The value was 15.21.

Q: And the “Protein-protein interaction distance between Abp1 SH3-swapped baits, to SHO1” value (distance to Abp1 bait with SHO1 SH3)?
A: Its value is 24.75.

Q: What about the “Protein-protein interaction distance between Abp1 SH3-swapped baits, to SLA1-1” value (distance to Abp1 bait with SLA1-1 SH3) of the same molecule?
A: The value was 5.436.

Q: What about the “Protein-protein interaction distance between Abp1 SH3-swapped baits, to SLA1-2” value (distance to Abp1 bait with SLA1-2 SH3) of the same molecule?
A: Its value is 14.43.

Q: And the “Protein-protein interaction distance between Abp1 SH3-swapped baits, to SLA1-3” value (distance to Abp1 bait with SLA1-3 SH3)?
A: Its value is 31.65.

Q: What about the “Protein-protein interaction distance between Abp1 SH3-swapped baits, to YSC84” value (distance to Abp1 bait with YSC84 SH3) of the same molecule?
A: The value was 31.42.
